# Data as given in patent US20260077011A1, “INTEGRIN INHIBITORS AS THERAPY FOR OBESITY DISORDERS” (priority 2022, published 2026).
# Where no end group is shown, it is not given here.
# Key:
# [1] = system: RAW264.7 cells; format: cell-based
# Description: (§1) Cells were also analyzed for the FITC-labeled peptide, which was added to the suspension of RAW264.7 cells in doses of 100 nM, 1 μM, 3 μM, 10 μM, 30 μM, 100 μM, and 300 μM, for one hour. For the time curve binding assay, 3 μM of the FITC-peptide were incubated with cells for 1, 5, 15, 60, 180, and 360 minutes before and analyzed on flow cytometry. For the propidium iodide (PI) assay, cells were incubated with different doses of the peptide for eight and 24 hours, with 10% DMSO serving as a positive control; the cells were then suspended, stained with PI, and analyzed with flow cytometry.
# To investigate the effects of the SVEP1-based peptide on the metabolic and proliferative capacity of macrophage cells, RAW264.7 cells were subjected to varying concentrations of the peptide (1, 10, 30, 120 μM). The cells' metabolic activity was assessed using XTT after 3, 8, and 24 hours of peptide treatment. […] To further evaluate cell viability, propidium iodide (PI) staining was conducted after 8 and 24 hours of peptide treatment. […] These findings provide evidence of the peptide's safety profile and its potential suitability for use in macrophage cells.
# [2] = target: T1, integrin α9β1 (Mus musculus, UniProt B8JK39+P09055); assay: Fluorescent live microscopy of FITC-peptide binding with/without unlabeled peptide; conditions: RAW264.7 cells, FITC-peptide 30 μM
# T1 construct: RAW264.7 cells, a murine macrophage-like cell line, was chosen due to their similarity to macrophages, adhesive and migratory capabilities, and their expression of integrin α9β1; host or cells: RAW264.7
# T1 sequence (B8JK39 29-1036): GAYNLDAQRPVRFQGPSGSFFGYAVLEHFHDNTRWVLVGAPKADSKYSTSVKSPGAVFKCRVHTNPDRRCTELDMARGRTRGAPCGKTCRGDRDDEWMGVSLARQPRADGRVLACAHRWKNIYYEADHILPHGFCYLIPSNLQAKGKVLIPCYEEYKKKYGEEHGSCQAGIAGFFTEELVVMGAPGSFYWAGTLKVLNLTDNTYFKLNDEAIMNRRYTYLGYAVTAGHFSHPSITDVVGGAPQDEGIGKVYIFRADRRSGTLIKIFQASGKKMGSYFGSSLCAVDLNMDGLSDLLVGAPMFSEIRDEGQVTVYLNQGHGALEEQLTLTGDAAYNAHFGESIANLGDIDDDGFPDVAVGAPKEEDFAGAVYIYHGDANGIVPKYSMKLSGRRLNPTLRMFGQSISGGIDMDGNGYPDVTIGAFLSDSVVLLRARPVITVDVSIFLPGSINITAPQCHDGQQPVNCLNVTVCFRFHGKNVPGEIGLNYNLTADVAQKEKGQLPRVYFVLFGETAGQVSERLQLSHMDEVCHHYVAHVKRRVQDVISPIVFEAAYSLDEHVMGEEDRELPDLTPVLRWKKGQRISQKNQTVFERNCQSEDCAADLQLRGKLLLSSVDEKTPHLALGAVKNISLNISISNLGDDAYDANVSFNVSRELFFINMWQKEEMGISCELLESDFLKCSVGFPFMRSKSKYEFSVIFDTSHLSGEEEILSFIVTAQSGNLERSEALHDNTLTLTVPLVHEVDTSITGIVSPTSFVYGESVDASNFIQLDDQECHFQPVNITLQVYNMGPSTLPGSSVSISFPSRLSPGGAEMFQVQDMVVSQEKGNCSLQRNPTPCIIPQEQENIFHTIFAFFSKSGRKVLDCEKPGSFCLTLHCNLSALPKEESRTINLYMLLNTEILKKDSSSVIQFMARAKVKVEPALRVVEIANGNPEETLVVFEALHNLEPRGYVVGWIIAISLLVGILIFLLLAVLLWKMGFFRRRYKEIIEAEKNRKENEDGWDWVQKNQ
# T1 sequence (P09055 21-798): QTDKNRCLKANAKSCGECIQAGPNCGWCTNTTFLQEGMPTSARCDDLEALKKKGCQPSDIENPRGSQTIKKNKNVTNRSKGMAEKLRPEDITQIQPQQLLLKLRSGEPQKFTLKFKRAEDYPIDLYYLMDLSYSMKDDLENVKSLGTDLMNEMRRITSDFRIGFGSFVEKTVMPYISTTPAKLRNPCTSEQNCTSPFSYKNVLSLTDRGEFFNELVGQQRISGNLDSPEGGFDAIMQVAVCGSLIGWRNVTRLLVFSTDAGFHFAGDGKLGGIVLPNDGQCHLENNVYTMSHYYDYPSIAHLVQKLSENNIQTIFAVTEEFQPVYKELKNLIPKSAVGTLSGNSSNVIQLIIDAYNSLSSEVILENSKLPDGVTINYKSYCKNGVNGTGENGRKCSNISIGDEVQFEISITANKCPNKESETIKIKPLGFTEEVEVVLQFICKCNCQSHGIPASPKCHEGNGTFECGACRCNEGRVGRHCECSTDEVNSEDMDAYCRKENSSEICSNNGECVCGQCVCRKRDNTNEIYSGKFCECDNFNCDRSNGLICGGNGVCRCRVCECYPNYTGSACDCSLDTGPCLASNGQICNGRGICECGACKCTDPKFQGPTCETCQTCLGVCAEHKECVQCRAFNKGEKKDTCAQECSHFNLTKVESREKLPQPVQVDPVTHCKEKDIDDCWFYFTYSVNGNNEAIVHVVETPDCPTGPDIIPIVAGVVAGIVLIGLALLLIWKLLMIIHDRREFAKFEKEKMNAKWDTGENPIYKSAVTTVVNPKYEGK
# Description: FIGS. 5A-5M include fluorescent micrographs and graphs showing characterization of the peptide's binding properties. (5A) Representative immunofluorescent confocal images of Raw264.7 cells stained for F4/80 and ITGA9, the dotted line square represents the magnified pictures, scale bar 116 μm. (5B) Flow cytometry quantification of LPS-activated RAW264.7 cells, ITGA9 MFI levels in LPS-activated RAW264.7 cells (4 hours), significance was calculated by unpaired t-test analysis. (5C) Calculated dose-response curve of Peptide-FITC positive RAW264.7 cells, measured in flow cytometry and time curve of the averaged mean fluorescent intensity (MFI) of RAW264.7 cells incubated with the labeled peptide, the MFI was calculated by flow cytometry. (5D) Representative images of RAW264.7 cells incubated with FITC-peptide (30 μM) for 15 and 60 minutes with and without an unlabeled peptide, scale bar=100 μm, and quantification of fluorescence intensity of RAW264.7 cells incubated with FITC-peptide (30 μM) for 15 and 60 minutes, w/o the unlabeled peptide, significance was calculated by using an ordinary one-way ANOVA. […] (5F) ITGA9 fluorescence intensity histogram in Scrambled and ITGA9 KD (Red) Raw264.7 cells incubated with FITC-peptide (30 μM) for 60 minutes, measured by flow cytometry. […]
# [3] = target: T1, integrin α9β1; assay: FITC-peptide dose-dependent uptake and time curve binding, flow cytometry; conditions: RAW264.7 cells
# Description: (§2) RAW264.7 cells were incubated in PBS with 2% serum, 0.1% NaN3, and 1 mM EDTA for 20 minutes, collected, and centrifuged at 1800 rpm for 5 min. Next, the cells were suspended in a staining buffer; PBS with 2% serum and 0.1% NaN3 for 15 min on ice. The cells were stained for ITGA9-PE (R&D technologies).
# as §1
# All labeled cells were analyzed by Cytoflex5l and Kaluza software (Beckman Coulter instrument).
# In a previous study, a 9 amino-acid long sequence, “EDDMMEVPY”, was identified as the binding site of SVEP1 to integrin α9β1. To examine the effect of the peptide in vitro, RAW264.7 cells, a murine macrophage-like cell line, was chosen due to their similarity to macrophages, adhesive and migratory capabilities, and their expression of integrin α9β1, as shown in the confocal staining of ITGA9 and F4/80, with a seeming membranal expression of both (FIG. 5G). […] To characterize the binding properties of the peptide, a fluorescein isothiocyanate (FITC) labeled peptide was generated. The inventors first performed a dose-dependent uptake test, where the RAW264.7 cells were incubated with increasing peptide concentrations for half an hour and then measured in a flow cytometry assay. […] Next, the cells were pretreated with the peptide for different time durations and were also measured by flow cytometry analysis. The peptide bonded relatively quickly, with 50% of max mean fluorescence intensity presented after 15 minutes and stabilization after three hours (FIG. 5C). […]
# [4] = target: T2, ITGA9 (Mus musculus, UniProt B8JK39+P09055); assay: FITC-peptide binding specificity in ITGA9 knockdown (siITGA9) cells; conditions: RAW264.7 cells, FITC-peptide 30 μM, 60 minutes
# T2 construct: RAW264.7 cells, a murine macrophage-like cell line, was chosen due to their similarity to macrophages, adhesive and migratory capabilities, and their expression of integrin α9β1; host or cells: RAW264.7
# T2 sequence (B8JK39 29-1036): as the sequence (B8JK39 29-1036) above
# T2 sequence (P09055 21-798): as the sequence (P09055 21-798) above
# Description: For siRNA assays, RAW264.7 cells were transfected by using Avalanche®-Everyday Transfection Reagent (Ezbio systems) with siSCR (Santa Cruz) and siITGA9 (Santa Cruz) in DMEM. The transfection solution was added to the cells for 48 hours, and the cells were examined after an additional 48 hours (96 hours in total).
# as §2
# In a previous study, a 9 amino-acid long sequence, “EDDMMEVPY”, was identified as the binding site of SVEP1 to integrin α9β1. […] The inventors first performed a dose-dependent uptake test, where the RAW264.7 cells were incubated with increasing peptide concentrations for half an hour and then measured in a flow cytometry assay. […] Next, the cells were pretreated with the peptide for different time durations and were also measured by flow cytometry analysis. The peptide bonded relatively quickly, with 50% of max mean fluorescence intensity presented after 15 minutes and stabilization after three hours (FIG. 5C). […]
substance,measurement,setting,value
"EDDMMEVPY [peptide, EDDMMEVPY]",fraction of PI-positive cells compared to the untreated group,[1],remained unchanged
"FITC-peptide: fluorescein isothiocyanate (FITC) labeled peptide of 9 amino acids (EDDMMEVPY) (also: FITC labeled, site not given here)",increase of fluorescence intensity after 60 minutes compared to 15 minutes,[2],35%
same,change of fluorescence intensity when co-incubated with the unlabeled peptide,[2]; competitive binding,decreased by a similar percentage
same,time to 50% of max mean fluorescence intensity,[3]; 3 μM FITC-peptide,15 min
same,time to stabilization of mean fluorescence intensity,[3]; 3 μM FITC-peptide,three
same,percentage of Peptide-FITC positive cells,"[3]; increasing peptide concentrations, half an hour",higher percentage of positive cells in a dose-related manner
same,FITC-peptide binding (fluorescence intensity) in siITGA9 versus scrambled cells,[4],lower intensity levels
same,percentage of ITGA9+FITC-peptide+ cells in KD cells,[4]; flow cytometry,significantly lower
